Consider three molecules from US20090304577A1.

No end group written: not given here.

Test [1] has as its target monoclonal anti-TCR Vβ antibody. Put plainly: ELISA OD with α-TCR Vβ on plate coated with CDR-H2 homodimer, against control (culture medium/PBS). In general terms: ELISA stands for enzyme-linked immunosorbent assay.
Test [2] shares this target. As to the kind of experiment: ELISA; plate coated with CDR-H2 homodimer, tested against α-TCR Vβ; mean ± SD of three observations.
For test [3] the target is unchanged. Put plainly: ELISA; plate coated with CDR-H3 homodimer, tested against α-TCR Vβ; mean ± SD of three observations.
Test [4] has the same target. Put plainly: ELISA OD with α-TCR Vβ on plate coated with CDR-H3 homodimer, against control (culture medium/PBS).
For test [5] the target is unchanged. Put plainly: ELISA OD with α-TCR Vβ on plate coated with CDR-L3 homodimer, against control (culture medium/PBS).
For test [6] the target is unchanged. Put plainly: ELISA; plate coated with CDR-L3 homodimer, tested against α-TCR Vβ; mean ± SD of three observations.

In the case of CNIYPSDSYTNYNQKFKD (also: homodimer, linkage not given here) [CDR-H2 homodimer peptide (SEQ ID NO:8 with an added N terminal cysteine, dimerised)], in test [1], the Ratio Test/Control came to 1.83. In test [2], this molecule displayed an optical density of 0.307 OD.

As to CLRGLLPDY (also: homodimer, linkage not given here) [CDR-H3 homodimer peptide (SEQ ID NO:10 with an added N terminal cysteine, dimerised)], the optical density in test [3] was 0.182 OD. Also, in test [4], the Ratio Test/Control came to 2.

As for CQQYNSYPLT (also: homodimer, linkage not given here) [CDR-L3 homodimer peptide (SEQ ID NO:16 with an added N terminal cysteine, dimerised)], the Ratio Test/Control in test [5] came to 1.74. This molecule also showed an optical density in test [6] of 0.243 OD.
